US20230059341A1 (TESARO, published 2023)
Read-outs that look alike come from different tables or passages of the source. Values belong to the binder of their own block, whether it stands above or below them.

Experiments:
[1] = molecular target: T1, human PD-1 on PD-1 effector cells (Jurkat T cells, Promega #J1155) (human, UniProt Q15116 25-288); test: cell-based or functional assay
[2] = molecular target: T2, PD-1 protein constitutively expressed on engineered CHO K1 cells (UniProt Q15116 25-288, limits assumed); test: MSD potency assay: competitive binding on CHO K1 cells expressing PD-1, inhibition of PD-L1-mFc binding, ECL; percent of reference material
T2 construct: whole, on cells; also called programmed cell death protein 1
T2 sequence (Q15116 25-288 limits assumed, change not shown): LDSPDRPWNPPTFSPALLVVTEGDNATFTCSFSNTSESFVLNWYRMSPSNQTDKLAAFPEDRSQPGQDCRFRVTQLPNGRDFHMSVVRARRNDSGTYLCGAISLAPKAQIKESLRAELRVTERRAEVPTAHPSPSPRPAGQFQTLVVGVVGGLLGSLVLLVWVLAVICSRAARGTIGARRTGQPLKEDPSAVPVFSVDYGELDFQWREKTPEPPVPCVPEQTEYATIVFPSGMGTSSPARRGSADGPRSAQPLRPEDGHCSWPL
Experimental: (§1) The Meso Scale Discovery (MSD) potency assay employs engineered CHO K1 cells constitutively expressing the PD-1 protein. […] The readout is measured using a specific detection antibody mixture that releases an electrochemiluminescence (ECL) signal that can be quantified.

[3] = molecular target: T3, Neonatal Fc Receptor (FcRn) (UniProt P55899 24-297; P61769 21-119, limits assumed); test: FcRn binding assay, BIACORE (SPR)
[4] = molecular target: T1, human PD-1 on PD-1 effector cells …; test: cell-based or functional assay; remark: listed apart in the source
[5] = molecular target: T3, Neonatal Fc Receptor (FcRn); test: FcRn binding assay, BIACORE (SPR); remark: listed apart in the source
[6] = molecular target: T2, PD-1 protein constitutively expressed …; test: MSD potency assay: competitive binding on CHO K1 cells expressing PD-1, inhibition of PD-L1-mFc binding, ECL; percent of reference material; remark: listed apart in the source
Experimental: as §1

[7] = molecular target: T2, PD-1 protein constitutively expressed …; test: as above; remark: listed apart in the source
Experimental: as §1

[8] = molecular target: T1, human PD-1 on PD-1 effector cells …; test: cell-based or functional assay; remark: listed apart in the source
[9] = molecular target: T3, Neonatal Fc Receptor (FcRn); test: FcRn binding assay, BIACORE (SPR); remark: listed apart in the source
[10] = molecular target: T3, Neonatal Fc Receptor (FcRn); test: BIACORE (SPR), antibody immobilized on sensor chip, FcRn injected as analyte
Experimental: FcRn binding was assessed via BIACORE analysis. […] Various concentrations of analyte (FcRn) were injected for analysis of the association and dissociation properties.

[11] = molecular target: T1, human PD-1 on PD-1 effector cells …; test: cell-based or functional assay; remark: listed apart in the source
[12] = molecular target: T3, Neonatal Fc Receptor (FcRn); test: FcRn binding assay, BIACORE (SPR); remark: listed apart in the source

T1 sequence (Q15116 25-288): as the sequence (Q15116 25-288 limits assumed, change not shown) above

Relative Potency (Potency by cell-based bioassay) [1]: 125%
Relative Potency, MSD Binding [2]: 88%
Kd [3]: 1980 nM
Relative Potency, Cell-Based Bioassay [4]: 125%
B1: Dostarlimab, acid degraded, pH 4.0, 25° C., 3 weeks (antibody, human IgG4 S228P, kappa)
heavy: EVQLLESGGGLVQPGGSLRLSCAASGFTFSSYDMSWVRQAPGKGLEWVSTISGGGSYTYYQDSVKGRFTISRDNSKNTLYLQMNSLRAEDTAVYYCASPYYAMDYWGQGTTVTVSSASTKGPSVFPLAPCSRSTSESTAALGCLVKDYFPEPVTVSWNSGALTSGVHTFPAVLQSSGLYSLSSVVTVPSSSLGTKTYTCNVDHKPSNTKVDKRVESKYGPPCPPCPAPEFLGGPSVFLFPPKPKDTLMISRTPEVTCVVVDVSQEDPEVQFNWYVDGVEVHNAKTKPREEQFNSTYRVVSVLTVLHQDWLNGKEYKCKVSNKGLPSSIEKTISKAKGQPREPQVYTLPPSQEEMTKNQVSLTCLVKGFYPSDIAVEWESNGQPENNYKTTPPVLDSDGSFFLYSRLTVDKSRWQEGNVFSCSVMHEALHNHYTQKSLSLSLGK
light: DIQLTQSPSFLSAYVGDRVTITCKASQDVGTAVAWYQQKPGKAPKLLIYWASTLHTGVPSRFSGSGSGTEFTLTISSLQPEDFATYYCQHYSSYPWTFGQGTKLEIKRTVAAPSVFIFPPSDEQLKSGTASVVCLLNNFYPREAKVQWKVDNALQSGNSQESVTEQDSKDSTYSLSSTLTLSKADYEKHKVYACEVTHQGLSSPVTKSFNRGEC
modifications: percent of population: Asn 137 deamidation 1.2; percent of population: Met 248 oxidation 3.1; Asp 261/266/276 isomerization 3.0; Asn 311 deamidation 7.2; Asn 380 deamidation 9.7; Asn 385 deamidation 1.8; Asp 395/397/409 isomerization 2.7; Asn 430 deamidation 1.0; Lys 443 clipped 97.0
notes: Mixture; HMW 15.2%, basic peaks 34.1%; also called Acid Hydrolysis

Kd [5]: 9690 nM
Relative Potency, MSD Binding [6]: 43%
B2: Dostarlimab, AAPH treated, 40° C., 7 days (antibody, human IgG4 S228P, kappa)
heavy: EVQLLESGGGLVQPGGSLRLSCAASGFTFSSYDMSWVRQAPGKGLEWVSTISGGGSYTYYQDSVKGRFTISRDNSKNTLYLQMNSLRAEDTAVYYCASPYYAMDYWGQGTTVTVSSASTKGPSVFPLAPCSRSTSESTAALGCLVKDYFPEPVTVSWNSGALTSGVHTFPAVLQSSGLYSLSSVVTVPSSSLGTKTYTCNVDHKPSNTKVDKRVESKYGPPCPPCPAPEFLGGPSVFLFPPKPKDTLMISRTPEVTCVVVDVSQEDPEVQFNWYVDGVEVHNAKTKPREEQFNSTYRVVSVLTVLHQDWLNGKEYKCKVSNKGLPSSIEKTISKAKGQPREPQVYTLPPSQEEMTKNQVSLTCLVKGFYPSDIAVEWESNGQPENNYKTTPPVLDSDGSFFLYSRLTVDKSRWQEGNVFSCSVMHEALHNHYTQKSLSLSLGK
light: DIQLTQSPSFLSAYVGDRVTITCKASQDVGTAVAWYQQKPGKAPKLLIYWASTLHTGVPSRFSGSGSGTEFTLTISSLQPEDFATYYCQHYSSYPWTFGQGTKLEIKRTVAAPSVFIFPPSDEQLKSGTASVVCLLNNFYPREAKVQWKVDNALQSGNSQESVTEQDSKDSTYSLSSTLTLSKADYEKHKVYACEVTHQGLSSPVTKSFNRGEC
modifications: PTM levels of this sample are not tabulated
notes: 5 mM AAPH; HMW 18.7%; also called AAPH, 40° C., 7 days

Relative Potency, MSD Binding [7]: 76%
Relative Potency (Potency by cell-based bioassay) [1]: 86%
Relative Potency, Cell-Based Bioassay [8]: 86%
Kd [9]: 2290 nM
B3: Dostarlimab, thermally degraded, 50° C., 3 weeks (antibody, human IgG4 S228P, kappa)
heavy: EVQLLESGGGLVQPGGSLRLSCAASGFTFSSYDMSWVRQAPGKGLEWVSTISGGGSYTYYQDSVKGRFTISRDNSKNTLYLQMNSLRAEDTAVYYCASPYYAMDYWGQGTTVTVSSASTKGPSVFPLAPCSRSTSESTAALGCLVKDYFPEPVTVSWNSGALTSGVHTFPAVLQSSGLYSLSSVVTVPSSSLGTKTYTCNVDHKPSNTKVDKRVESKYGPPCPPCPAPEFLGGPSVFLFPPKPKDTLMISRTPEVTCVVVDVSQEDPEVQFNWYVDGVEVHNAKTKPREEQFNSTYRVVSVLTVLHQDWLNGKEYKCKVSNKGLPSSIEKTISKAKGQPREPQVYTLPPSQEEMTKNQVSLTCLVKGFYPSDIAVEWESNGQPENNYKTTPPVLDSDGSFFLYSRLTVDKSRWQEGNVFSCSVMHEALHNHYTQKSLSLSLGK
light: DIQLTQSPSFLSAYVGDRVTITCKASQDVGTAVAWYQQKPGKAPKLLIYWASTLHTGVPSRFSGSGSGTEFTLTISSLQPEDFATYYCQHYSSYPWTFGQGTKLEIKRTVAAPSVFIFPPSDEQLKSGTASVVCLLNNFYPREAKVQWKVDNALQSGNSQESVTEQDSKDSTYSLSSTLTLSKADYEKHKVYACEVTHQGLSSPVTKSFNRGEC
modifications: percent of population: Asp 151/167 isomerization 2.5; percent of population: Met 248 oxidation 7.6; Asp 261/266/276 isomerization 13.1; Asn 311 deamidation 7.4; Met 354 oxidation 4.2; Asn 380 deamidation 14.7; Asn 385 deamidation 5.9; Asp 395/397/409 isomerization 2.2; Met 424 oxidation 3.5; Asn 430 deamidation 2.0; Lys 443 clipped 97.8
notes: Mixture; HMW 11.2%, acidic peaks 59.1%; also called Thermal Degradation

Kd [10]: 1750 nM
B4: Dostarlimab (antibody, human IgG4 S228P, kappa)
heavy: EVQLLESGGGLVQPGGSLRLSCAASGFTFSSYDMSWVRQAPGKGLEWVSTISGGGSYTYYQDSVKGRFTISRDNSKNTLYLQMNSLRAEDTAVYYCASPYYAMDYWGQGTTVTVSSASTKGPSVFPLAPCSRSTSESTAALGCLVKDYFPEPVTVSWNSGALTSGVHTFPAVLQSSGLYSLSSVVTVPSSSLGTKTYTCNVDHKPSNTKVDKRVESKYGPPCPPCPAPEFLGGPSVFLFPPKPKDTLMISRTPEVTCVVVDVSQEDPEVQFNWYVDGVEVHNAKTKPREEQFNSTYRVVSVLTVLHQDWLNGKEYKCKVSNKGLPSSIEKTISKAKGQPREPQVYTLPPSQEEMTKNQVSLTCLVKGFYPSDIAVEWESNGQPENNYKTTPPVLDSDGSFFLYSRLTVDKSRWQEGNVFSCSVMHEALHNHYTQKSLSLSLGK
light: DIQLTQSPSFLSAYVGDRVTITCKASQDVGTAVAWYQQKPGKAPKLLIYWASTLHTGVPSRFSGSGSGTEFTLTISSLQPEDFATYYCQHYSSYPWTFGQGTKLEIKRTVAAPSVFIFPPSDEQLKSGTASVVCLLNNFYPREAKVQWKVDNALQSGNSQESVTEQDSKDSTYSLSSTLTLSKADYEKHKVYACEVTHQGLSSPVTKSFNRGEC
modifications: N-glycan at Asn 293 (99% occupancy)
notes: also called dostarlimab drug substance (DS); anti-PD-1 antibody

Relative Potency (Potency by cell-based bioassay) [1]: 102%
Relative Potency, Cell-Based Bioassay [11]: 102%
Kd [5]: 1660 nM
Relative Potency, MSD Binding [6]: 79%
B5: Dostarlimab, AAPH treated, T0 (exposed to AAPH, no incubation) (antibody, human IgG4 S228P, kappa)
heavy: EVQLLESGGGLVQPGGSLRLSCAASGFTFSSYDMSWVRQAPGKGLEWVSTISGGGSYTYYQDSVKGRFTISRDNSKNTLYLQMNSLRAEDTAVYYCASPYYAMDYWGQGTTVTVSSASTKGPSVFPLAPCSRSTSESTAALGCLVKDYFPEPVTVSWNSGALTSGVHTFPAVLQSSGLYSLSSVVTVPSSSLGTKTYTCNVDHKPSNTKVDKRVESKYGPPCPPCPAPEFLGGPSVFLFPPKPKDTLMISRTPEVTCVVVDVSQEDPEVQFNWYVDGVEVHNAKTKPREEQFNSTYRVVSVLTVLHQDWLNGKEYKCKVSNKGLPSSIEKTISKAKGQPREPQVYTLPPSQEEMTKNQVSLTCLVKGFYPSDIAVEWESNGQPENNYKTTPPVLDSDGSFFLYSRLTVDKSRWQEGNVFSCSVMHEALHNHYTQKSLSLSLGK
light: DIQLTQSPSFLSAYVGDRVTITCKASQDVGTAVAWYQQKPGKAPKLLIYWASTLHTGVPSRFSGSGSGTEFTLTISSLQPEDFATYYCQHYSSYPWTFGQGTKLEIKRTVAAPSVFIFPPSDEQLKSGTASVVCLLNNFYPREAKVQWKVDNALQSGNSQESVTEQDSKDSTYSLSSTLTLSKADYEKHKVYACEVTHQGLSSPVTKSFNRGEC
modifications: percent of population: Asn 137 deamidation 1.0; percent of population: Met 248 oxidation 3.3; Asp 261/266/276 isomerization 1.0; Asn 311 deamidation 6.3; Asn 380 deamidation 9.5; Asn 385 deamidation 1.0; Asn 430 deamidation 1.3; Lys 443 clipped 97.8
notes: 5 mM AAPH, quenched at once with methionine; also called AAPH T0; AAPH Oxidation

Relative Potency, Cell-Based Bioassay [11]: 14%
Kd [5]: 8330 nM
Relative Potency, MSD Binding [6]: 57%
B6: Dostarlimab, AAPH treated, 40° C., 3 days (antibody, human IgG4 S228P, kappa)
heavy: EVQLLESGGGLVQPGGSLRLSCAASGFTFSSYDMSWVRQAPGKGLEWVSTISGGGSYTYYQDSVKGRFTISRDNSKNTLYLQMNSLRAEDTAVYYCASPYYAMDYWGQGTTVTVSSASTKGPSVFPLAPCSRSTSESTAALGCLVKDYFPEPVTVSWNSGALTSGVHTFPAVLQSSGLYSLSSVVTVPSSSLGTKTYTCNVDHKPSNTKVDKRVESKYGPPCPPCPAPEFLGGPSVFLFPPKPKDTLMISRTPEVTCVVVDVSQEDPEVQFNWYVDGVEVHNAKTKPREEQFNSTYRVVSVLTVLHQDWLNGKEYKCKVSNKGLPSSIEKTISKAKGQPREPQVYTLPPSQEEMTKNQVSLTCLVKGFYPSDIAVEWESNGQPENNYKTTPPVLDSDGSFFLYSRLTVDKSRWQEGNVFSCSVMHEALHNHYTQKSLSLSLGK
light: DIQLTQSPSFLSAYVGDRVTITCKASQDVGTAVAWYQQKPGKAPKLLIYWASTLHTGVPSRFSGSGSGTEFTLTISSLQPEDFATYYCQHYSSYPWTFGQGTKLEIKRTVAAPSVFIFPPSDEQLKSGTASVVCLLNNFYPREAKVQWKVDNALQSGNSQESVTEQDSKDSTYSLSSTLTLSKADYEKHKVYACEVTHQGLSSPVTKSFNRGEC
modifications: percent of population: Trp 50 oxidation 74.2; percent of population: Met 103 oxidation 7.0; Met 248 oxidation 88.4; Asp 261/266/276 isomerization 1.0; Asn 311 deamidation 6.6; Met 354 oxidation 44.8; Asn 380 deamidation 9.6; Asn 385 deamidation 1.2; Met 424 oxidation 78.2; Lys 443 clipped 97.7
notes: 5 mM AAPH; HMW 11.8%; also called AAPH, 40° C., 3 days

Kd [12]: 2260 nM
B7: Dostarlimab, base degraded, T0 (exposed to pH 9.0, no incubation) (antibody, human IgG4 S228P, kappa)
heavy: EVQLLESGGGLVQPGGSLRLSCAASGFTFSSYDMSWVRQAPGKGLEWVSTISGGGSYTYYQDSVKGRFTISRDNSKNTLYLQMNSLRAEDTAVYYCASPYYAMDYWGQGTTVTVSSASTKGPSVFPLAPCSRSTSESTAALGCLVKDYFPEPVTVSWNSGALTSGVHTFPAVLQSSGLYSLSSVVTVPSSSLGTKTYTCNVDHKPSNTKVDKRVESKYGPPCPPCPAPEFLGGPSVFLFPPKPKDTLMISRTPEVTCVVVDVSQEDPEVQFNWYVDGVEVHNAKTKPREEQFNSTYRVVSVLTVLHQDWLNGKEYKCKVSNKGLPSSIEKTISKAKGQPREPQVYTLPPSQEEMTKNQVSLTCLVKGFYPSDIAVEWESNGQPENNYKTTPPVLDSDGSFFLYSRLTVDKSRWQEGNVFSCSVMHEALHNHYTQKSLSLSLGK
light: DIQLTQSPSFLSAYVGDRVTITCKASQDVGTAVAWYQQKPGKAPKLLIYWASTLHTGVPSRFSGSGSGTEFTLTISSLQPEDFATYYCQHYSSYPWTFGQGTKLEIKRTVAAPSVFIFPPSDEQLKSGTASVVCLLNNFYPREAKVQWKVDNALQSGNSQESVTEQDSKDSTYSLSSTLTLSKADYEKHKVYACEVTHQGLSSPVTKSFNRGEC
modifications: percent of population: Asn 137 deamidation 1.3; percent of population: Met 248 oxidation 2.8; Asn 311 deamidation 6.8; Asn 380 deamidation 10.8; Asn 385 deamidation 1.8; Lys 443 clipped 96.9
notes: Mixture; HMW 8.1%, acidic peaks 27.2%

Relative Potency, MSD Binding [2]: 99%
Kd [3]: 2060 nM
Relative Potency, Cell-Based Bioassay [4]: 109%
B8: Dostarlimab, acid degraded, T0 (exposed to pH 4.0, no incubation) (antibody, human IgG4 S228P, kappa)
heavy: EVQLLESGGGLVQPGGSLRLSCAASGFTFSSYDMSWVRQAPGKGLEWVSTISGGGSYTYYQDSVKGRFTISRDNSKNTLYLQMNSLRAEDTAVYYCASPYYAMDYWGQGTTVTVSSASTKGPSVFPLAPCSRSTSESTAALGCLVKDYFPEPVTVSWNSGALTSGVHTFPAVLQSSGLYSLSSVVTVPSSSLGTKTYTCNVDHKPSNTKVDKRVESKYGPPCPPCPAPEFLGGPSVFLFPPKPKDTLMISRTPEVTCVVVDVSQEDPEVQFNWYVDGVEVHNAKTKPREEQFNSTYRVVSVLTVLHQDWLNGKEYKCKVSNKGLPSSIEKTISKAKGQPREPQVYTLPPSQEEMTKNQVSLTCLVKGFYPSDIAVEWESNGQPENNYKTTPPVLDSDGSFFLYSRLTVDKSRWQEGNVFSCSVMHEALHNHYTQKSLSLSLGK
light: DIQLTQSPSFLSAYVGDRVTITCKASQDVGTAVAWYQQKPGKAPKLLIYWASTLHTGVPSRFSGSGSGTEFTLTISSLQPEDFATYYCQHYSSYPWTFGQGTKLEIKRTVAAPSVFIFPPSDEQLKSGTASVVCLLNNFYPREAKVQWKVDNALQSGNSQESVTEQDSKDSTYSLSSTLTLSKADYEKHKVYACEVTHQGLSSPVTKSFNRGEC
modifications: percent of population: Asn 137 deamidation 1.2; percent of population: Met 248 oxidation 3.8; Asn 311 deamidation 7.1; Asn 380 deamidation 10.1; Asn 385 deamidation 1.5; Lys 443 clipped 97.1
notes: Mixture; HMW 13.4%, basic peaks 13.6%
